Test results: US20230174955A1

Assays:
[1] = biological target: full length collagen (with foldON), expressed in Pichia strain PP654 (vector MMV-398); test: cell-based or functional assay
[2] = biological target: collagen secreted by strains PP766 and PP767 along with mimiP4H
[3] = biological target: collagen substrate of the in-vitro hydroxylation reaction with purified secreted mimiP4H
[4] = biological target: purified collagen derived from strain PP685, added to fermentation supernatant

Molecule	hydroxylation level of collagen (mass spec of gel band; in vivo, PP654 in fermenters) [1] [%]	hydroxylation of secreted collagen in fermentation supernatant [2]	%HyP, colorimetric assay, in-vitro hydroxylation reaction [3]	hydroxylation of added purified collagen in unpurified fermentation supernatant [4]
mimi-virus P4H (monomeric prolyl 4-hydroxylase), intracellular, expressed in Pichia strain PP654 from vector MMV-580 (enzyme)	17	–	–	–
secreted mimi-virus P4H from Pichia (vector MMV-644; strains PP765, PP766, PP767), with 6X His tag at the C-terminus (protein) VLSKSCVSHFRNVGSLNSRDVNLKDDFSYANIDDPYNKPFVLNNLINPTKCQEIMQFANGKLFDSQVLSGTDKNIRNSQQMWISKNNPMVKPIFENICRQFNVPFDNAEDLQVVRYLPNQYYNEHHDSCCDSSKQCSEFIERGGQRILTVLIYLNNEFSDGHTYFPNLNQKFKPKTGDALVFYPLANNSNKCHPYSLHAGMPVTSGEKWIANLWFRERKFSHHHHHH	–	An increase in hydroxylation was observed for both the secreted collagen and added purified collagen	Ni-NTA purified mimiP4H showed 24% hydroxylation	All reactions showed an increase in the hydroxylation over the pre-reaction levels (~3%)
